Reference: publication PMC9348577, “Dimerization of kringle 1 domain from hepatocyte growth factor/scatter factor provides a potent MET receptor agonist” (Life Science Alliance, 2022)

Columns and labels:
MET567 [1] = molecular target: T1, MET567 (human, UniProt P08581 25-567); assay: SEC-SAXS; K1K1 in complex with MET567 injected on Superdex 200 PC 3.2/300 Increase on line with SAXS (ESRF BM29); 25 mM Tris (pH 7.4), 150 mM NaCl; conditions: both partners purified
T1 construct: human MET receptor fragment MET567 comprising the N-terminal SEMA domain and the cysteine-rich/PSI domain; as I recall it spans residues 25-567 of MET; also called MET567 receptor fragment; MET567 fragment; source: CHO Lec 3.2.8.1 cells, purified as described in Gherardi et al (2003)

MET567 [2] = molecular target: T1, MET567; assay: SPR; Biacore T200; MET567 immobilised at low density (515 RU) by amine coupling on a CM5 chip; 25°C, PBST (PBS + 0.05% Tween 20), 30 ul/min, 300-s injections to equilibrium; apparent KD from the binding isotherm; conditions: both partners purified

T1 sequence (P08581 25-567): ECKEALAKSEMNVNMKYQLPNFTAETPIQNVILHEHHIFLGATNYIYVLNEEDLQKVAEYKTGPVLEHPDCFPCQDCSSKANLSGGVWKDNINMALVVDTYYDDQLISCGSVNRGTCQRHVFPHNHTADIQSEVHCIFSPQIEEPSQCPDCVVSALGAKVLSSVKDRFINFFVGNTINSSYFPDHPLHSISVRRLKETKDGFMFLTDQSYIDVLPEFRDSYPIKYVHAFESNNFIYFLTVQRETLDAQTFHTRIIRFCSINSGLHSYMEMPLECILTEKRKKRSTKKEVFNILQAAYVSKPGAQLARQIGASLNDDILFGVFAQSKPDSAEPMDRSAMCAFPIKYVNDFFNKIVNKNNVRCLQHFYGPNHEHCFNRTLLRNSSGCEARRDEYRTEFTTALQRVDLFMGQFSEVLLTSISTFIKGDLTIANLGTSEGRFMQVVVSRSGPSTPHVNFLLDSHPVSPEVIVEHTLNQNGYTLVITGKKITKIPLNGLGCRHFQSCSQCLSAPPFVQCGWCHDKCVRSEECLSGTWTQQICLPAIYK

B1: K1K1 (ligand)
chain: AIRNCIIGKGRSYKGTVSITKSGIKCQPWSSMIPHEHSFLPSSYRGKDLQENYCRNPRGEEGGPWCFTSNPEVRYEVCDIPQCSEVECIIGKGRSYKGTVSITKSGIKCQPWSSMIPHEHSFLPSSYRGKDLQENYCRNPRGEEGGPWCFTSNPEVRYEVCDIPQCSEVE
modifications: Intra-kringle disulphides (three per kringle). The initiator Met of the MAIRN construct is absent from the 7OCL entity, so paper numbering = entity number + 1. Layout: (M)AIRN + HGF 128-206 + SEVE + …
MET567 [1]
  stoichiometry N: 1
MET567 [2]
  Kd: 0.205 µM

B2: NK1 (natural protein, human, UniProt P14210 28-209, looked up)
chain: YAEGQRKRRNTIHEFKKSAKTTLIKIDPALKIKTKKVNTADQCANRCTRNKGLPFTCKAFVFDKARKQCLWFPFNSMSSGVKKEFGHEFDLYENKDYIRNCIIGKGRSYKGTVSITKSGIKCQPWSSMIPHEHSFLPSSYRGKDLQENYCRNPRGEEGGPWCFTSNPEVRYEVCDIPQCSEV
notes: human NK1, splice variant of HGF/SF with the N-domain and the first kringle domain (K1), residues 28-209; also called recombinant human NK1 protein; wild-type NK1; source: Pichia pastoris, purified as described in Chirgadze et al (1999)
MET567 [2]
  Kd: 0.2 µM
